Measurements from patent US20220025060A1 (JIANGSU HENGRUI MEDICINE, published 2022).

Target: T1, His-tagged human CD40 (h-CD40-his) recombinant protein (human, UniProt P25942 21-193)
T1 construct: range 21-193; Commercial reagent from Acrobiosystems; also called human CD40-his; not shown: His tag
Experiment: Biacore SPR
Text: According to the method described in the instruction available from Human Anti-capture Kit (Cat.# BR-1008-39, GE), human anti-capture antibody was covalently coupled to biosensing chip CM5 of the Biacore instrument (Biacore X100, GE), a certain amount of chimeric or humanized antibodies to be tested was affinity-captured, and then a series of concentration gradients of CD40 antigen (CD40 antigen purchased from Acrobiosystems) flowed through the surface of the chip. Biacore instrument (Biacore X100, GE) was used to detect the reaction signal in real-time, thus to obtain the association and dissociation curves. After each cycle of dissociation was completed, the biochip was washed and regenerated with a regeneration solution provided by the Human Anti-capture Kit. The amino coupling kit used in the test was purchased from GE (Cat. # BR-1000-50, GE), and HBS-EP+10× buffer solution (Cat. # BR-1006-69, GE) was diluted to 1×(pH 7.4) with double distilled water.
The data obtained from the test was fitted against a (1:1) Binding model using BiacoreX100 evaluation software2.0 GE, and the affinity value was obtained, as shown in Table 10 and Table 11.

T1 sequence (P25942 21-193 limits assumed): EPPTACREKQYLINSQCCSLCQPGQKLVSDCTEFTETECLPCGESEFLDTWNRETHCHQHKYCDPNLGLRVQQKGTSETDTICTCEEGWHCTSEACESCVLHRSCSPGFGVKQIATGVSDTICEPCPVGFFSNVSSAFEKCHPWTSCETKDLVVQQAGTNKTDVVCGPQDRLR

B1: humanized antibody hu9E5 (H1c heavy chain, L1a light chain) (antibody, human IgG1, kappa, V domains shown)
VH: QVQLVQSGAEVKKPGASVKVSCKASGYILTTYWITWVRQAPGQGLEWMGDIHPGSGSTKYNEKFKSRVTLTVDTSISTAYMELSRLRSEDTAVYYCARRDYWGQGTTVTVSS
VL: DIVMTQSPLSLPVTPGEPASISCRSSQNIVNSQGNTYLEWYLQKPGQSPQLLIYKVTNRFSGVPDRFSGSGSGTDFTLKISRVEAEDVGVYYCFQASLVPWTFGGGTKVEIKR
notes: also called Hu9E5-25
fold affinity against the Alligator control: ≥ 10 times
fold affinity against the Pfizer Control: ≥ 4 times
